Data taken from patent publication US20040186044A1, “Modulation of myelination by interaction with P75 and TRK receptors” (priority 2002, published 2004).

Assays:
[1] = test system: Schwann cell/neuronal cocultures; test: Western blot of myelin proteins MAG and P0 in Schwann cell/DRG neuronal cocultures; format: cell-based, rat
Protocol: (§1) Dorsal Root Ganglia (DRG) Neuronal Schwann Cell Cocultures. Purified neuronal and Schwann cell cultures were prepared as previously described. Neuronal cultures were established from DRG neurons obtained from Sprague-Dawley rat embryos at 15 days gestation (Simonsen Laboratories, Gilroy, Calif.). DRG neurons were dissociated and plated onto collagen coated coverslips. Nonneuronal cells were eliminated by cycling (three 2-day cycles) with a fluorodeoxyuridine-containing medium (10 μM). NGF-dependent neurons were then maintained for 1 week in a medium consisting of 10% FBS in MEM and 100 ng/ml of NGF.
(§2) Schwann cells were isolated from the sciatic nerve of 4-day-old rat pups. Schwann cells were purified by using cytosine arabinoside and Thy-1.1 antibody mediated lysis of the fibroblasts (the anti-Thy-1.1 antibody was obtained from the American Type Culture Collection). Approximately 100,000 purified Schwann cells were than seeded onto purified neuronal cultures of ˜50,000 cells and allowed to proliferate and ensheath the axons (˜1 week). Myelination was then initiated with the addition of ascorbic acid (50 μg/ml), which was replenished with feeding every 2 to 3 days.
(§3) Western Blot Analysis. Samples from Schwann cell/neuronal co-cultures and sciatic nerves were prepared for Western blot analysis by homogenization in radioimmunoprecipitation assay (RIPA) buffer [PBS with 1% Nonidet P-40/0.5% deoxycholate/0.1% SDS/1 mM PMSF/Complete protease inhibitor tablets (Roche Molecular Biochemicals)] followed by high-speed centrifugation. Protein determination was made by using the Bicinchoninic Acid Kit (Sigma). Equivalent amounts of total protein extract from each sample were mixed with sample buffer, boiled, and loaded onto SDS polyacrylamide gels. Electrophoretic separation of the extracts was typically performed on 10-15% (depending on the molecular weight of the protein of interest) discontinuous acrylamide gels under denaturing conditions. The proteins were then transferred to pure nitrocellulose membranes (PROTRAN BA85, Schleicher and Schuell, 0.45 μm) and probed with specific antibodies. The mouse monoclonal anti-myelin-associated glycoprotein (MAG; Chemicon) was used at a concentration of 2.5 μg/ml (under nonreducing conditions); the mouse monoclonal anti-P0 antibody was used at a dilution of 1:5,000. All primary antibodies were incubated overnight at 4° C. Secondary HRP-conjugated anti-mouse IgG and anti-rabbit IgG antibodies were used at a dilution of 1:10,000 (Jackson ImmunoResearch). The blots were developed by chemiluminescence (Renaissance, DuPont_NEN) as described by the manufacturer. All of the blots were imaged and quantitated in the linear range for the corresponding antibodies. Protein concentrations of the samples were serial diluted until linear intensities were achieved. In many instances, the blots were stripped and reprobed with different antibodies.

[2] = test system: Schwann cell/neuronal cocultures; test: P0 immunocytochemistry of mature myelin internodes in Schwann cell/neuronal cocultures; format: cell-based; conditions: for Schwann cell proliferation and morphology of ensheathed Schwann cells / cell death (neurofilament and nuclear staining): 100 ng/ml; for formation of mature myelin internodes (P0 immunostaining): BDNF, TrkB-Fc, TrkC-Fc 1 μg/ml, added at day of induction, 6 days after induction
Protocol: as §1, §2
Immunocytochemistry. Cocultures were fixed in 4% paraformaldehyde before dehydration through a graded ethanol series (50, 70, 90, and 100%). Samples were then permeabilized and blocked by incubation with 20% normal goat serum or 10% FCS. Primary antibodies included the mouse monoclonal anti-P0 antibody used at a dilution of 1:500 and the mouse monoclonal anti-MAG at a concentration of 2.5 μg/ml. The Texas red-conjugated anti-mouse IgG (Jackson ImmunoResearch) was used as a secondary antibody at a dilution of 1:1,000. Cellular nuclei were examined by using the Hoechst dye. Samples were mounted and fluorescence microscopy was accomplished by using a Nikon Microphot FXA.

SC/DRG cocultures = test: TUNEL analysis of neuronal or glial survival in SC/DRG cocultures; format: cell-based, rat; conditions: added at the start of myelination
sciatic nerve [3] = test: Western blot of MAG and P0 in developing sciatic nerve after s.c. injection of newborn mice; format: in vivo, mouse; conditions: for P0 and MAG protein expression, wild-type mice: newborn wild-type mice, Western-blot 4 days later
Protocol: as §3
(§4) Injections in Mouse Sciatic Nerve. BDNF, NT3, TrkB-Fc, and TrkC-Fc (3 μg each; Regeneron Pharmaceuticals) were injected s.c. starting from the caudal portion of the greater trochanter region and running parallel along the sciatic nerve (total volume of 5 μl). T he contralateral leg served as a control for each factor with the injection of saline. Injections were performed on 1-day-old mouse pups (C57BU6, Simonsen Laboratories) and the sciatic nerves were extracted and processed 48 h later. A second set of mice were reinjected with the factors and then examined after an additional 48 h (4 days of total treatment). Nerves used for electron microscopy were trimmed and incisions were made at the flexure of the greater trochanter. In total, 11 animals were analyzed after injection with BDNF, 12 with TrkB-Fc, 11 with NT3, and 7 with TrkC-Fc.

[4] = test system: sciatic nerve of p75NTR -/- mice; test: Western blot of P0 and MAG in sciatic nerve of injected newborn p75NTR -/- mice; format: in vivo, mouse; conditions: Western-blot 4 days later
Protocol: (§5) (A-B) Newborn wild-type and p75^NTR −/− mice were injected with BDNF (wild-type, n=10; p75^NTR −/−, n=25) and NT3 (wild-type, n=13; p75^NTR −/−, n=14) or the scavengers TrkB-Fc (wild-type, n=13; p75^NTR −/−, n=20) and TrkC-Fc (wild-type, n=14; p75^NTR −/−, n=20) and the levels of (A) P0 and (B) MAG were analyzed by Western-blot 4 days later. Asterisks: p<0.01. (C-D) Wild-type and p75^NTR −/− SC/DRG cocultures were established from E13 mouse embryos obtained through crossing heterozygous (p75^NTR +/−) mice. Levels of (C) P0 and (D) MAG were determined by Western-blot six days after initiation of myelination in the presence of the different factors. Asterisks: p<0.01.

[5] = test system: wild-type SC/DRG cocultures; test: Western blot of P0 and MAG in wild-type mouse SC/DRG cocultures; format: cell-based; conditions: six days after initiation of myelination
Protocol: as §5

[6] = test system: p75NTR -/- SC/DRG cocultures; test: Western blot of P0 and MAG in p75NTR -/- mouse SC/DRG cocultures; format: cell-based; conditions: six days after initiation of myelination
Protocol: as §5

sciatic nerve [7] = test: Electron microscopy of myelin ultrastructure in developing sciatic nerve of injected newborn mice; format: in vivo, mouse
Protocol: as §4
Electron Microscopy. Electron microscopy was performed by the Electron Microscopy Facility in the Department of Microbiology and Immunology (Stanford University, CA). Processing of the sciatic nerve was accomplished by fixation in 2% glutaraldehyde and 4% paraformaldehyde solution in PBS, followed by post-fixation in 1% OSO4. […] Finally, samples were infiltrated and embedded in pure epoxy.

[8] = 100 ng/ml added at day of induction, analysed after 6 days of induction
[9] = 3 μg at P1, reinjected 2 days later, nerves at P5, vs contralateral saline
[10] = 3 μg at P1, reinjected, nerves at P5

COC(=O)[C@@]1(O)C[C@H]2O[C@]1(C)n1c3ccccc3c3c4c(c5c6ccccc6n2c5c31)C(=O)NC4 [K252a, K-252a, reference compound]
accumulation of myelin proteins MAG and P0 ([1]; rat SC/DRG cocultures treated for 6 days from induction): increase in myelin protein accumulation | formation of mature myelin internodes (P0 immunocytochemistry) ([2]; rat SC/DRG cocultures, Example 2): increase | neuronal or glial survival (SC/DRG cocultures): does not affect neuronal or glial survival

NT3: neurotrophin-3, gift from Regeneron Pharmaceuticals
diminished expression of MAG [1, 8]: ~2 fold | diminished expression of P0 [1, 8]: ~3 fold | Schwann cell proliferation and morphology of ensheathed Schwann cells [2]: Neither BDNF nor NT3 caused any changes | cell death (neurofilament and nuclear staining) [2]: no sign of increased cell death | formation of mature myelin internodes (P0 immunostaining) ([2]; NT3 100 ng/ml): inhibited the appearance of myelin internodes | thickness and length of detected internodes vs control cultures ([2]; NT3 100 ng/ml, TrkB-Fc 1 μg/ml): significantly thinner and shorter in length | inhibition of MAG and P0 expression in the sciatic nerves (sciatic nerve [3]; 3 μg s.c., mice treated for 2 days, vs contralateral leg): ~25% | P0 and MAG protein expression, wild-type mice (sciatic nerve [3]): inhibited | P0 and MAG protein expression, p75NTR -/- mice [4]: inhibited | myelin protein expression (P0, MAG), wild-type cocultures [5]: inhibited | myelin protein expression (P0, MAG), p75NTR -/- cocultures [6]: inhibited

B1: BDNF: neurotrophin brain-derived neurotrophic factor, gift from Regeneron Pharmaceuticals (protein, UniProt P23560 19-247, looked up)
Neurotrophic factor BDNF …: APMKEANIRGQGGLAYPGVRTHGTLESVNGPKAGSRGLTSLADTFEHVIEELLDEDQKVRPNEENNKDADLYTSRVMLSSQVPLEPPLLFLLEEYKNYLDAANMSMRVRRHSDPARRGELSVCDSISEWVTAADKKTAVDMSGGTVTVLEKVPVSKGQLKQYFYETKCNPMGYTKEGCRGIDKRHWNSQCRTTQSYVRALTMDSKKRIGWRFIRIDTSCVCTLTIKRGR
enhancement of MAG expression over control cultures [1, 8]: ~2 fold | enhancement of P0 expression over control cultures [1, 8]: ~1.5 fold | modulation of myelination (P0 and MAG) in the presence of K252a ([1]; in combination with K252a, 6 days): still able to modulate myelination | Schwann cell proliferation and morphology of ensheathed Schwann cells [2]: Neither BDNF nor NT3 caused any changes | cell death (neurofilament and nuclear staining) [2]: no sign of increased cell death | formation of mature myelin internodes (P0 immunostaining) ([2]; NT3 100 ng/ml): produced an enhancement in myelin formation | enhancement of MAG and P0 expression in the sciatic nerves (sciatic nerve [3]; 3 μg s.c., 1-day-old mouse pups, vs saline-injected contralateral leg): more than 50% | P0 and MAG protein expression, wild-type mice (sciatic nerve [3]): enhanced P0 and MAG protein expression | P0 and MAG expression in sciatic nerve (sciatic nerve [3]; s.c. injection of newborn mice, nerves isolated four days later (Example 2)): enhanced P0 and MAG expression | decrease in ensheathed axons (sciatic nerve [7]; [9]): 2 fold | number of myelinated axons (sciatic nerve [7]; [9]): significant correlative increase in the number of myelinated axons | more wraps of myelin on average than control nerves (sciatic nerve [7]; [10]): 25% | percentage of myelinated axons with more than 25 wraps of myelin (sciatic nerve [7]; [10]): more than 30% | thickness of the myelin sheath (number of lamellae distribution) vs contralateral control nerve (sciatic nerve [7]; newborn mice, sciatic nerve): significantly thicker | total number of axons vs contralateral control nerves (sciatic nerve [7]; ultrastructural studies): did not reveal any differences in the total number of axons | P0 and MAG protein expression, p75NTR -/- mice [4]: neither BDNF nor TrkB-Fc were able to modulate myelin protein expression | myelin protein expression (P0, MAG), wild-type cocultures [5]: enhanced | myelin protein expression (P0, MAG), p75NTR -/- cocultures [6]: neither BDNF nor TrkB-Fc had any effect
